Test results from patent US20260242735A1 (UNIVERSIT T BASEL, published 2026).

B1: Refmab #1 (antibody, human IgG1, V domains shown)
VH: EVQLVQSGAEVKKPGSSVKVSCKASGYTITDSNIHWVRQAPGQSLEWIGYIYPYNGGTDYNQKFKNRATLTVDNPTNTAYMELSSLRSEDTAFYYCVNGNPWLAYWGQGTLVTVSS
VL: DIQLTQSPSTLSASVGDRVTITCRASESLDNYGIRFLTWFQQKPGKAPKLLMYAASNQGSGVPSRFSGSGSGTEFTLTISSLQPDDFATYYCQQTKEVPWSFGQGTKVEVK
notes: Tested in IgG format; human IgG1 (Absolute Antibody hP67.6, Cat. No. Ab00283-10.0); also called hP67.6
B2: Refmab #2 (antibody, human IgG1, V domains shown)
VH: QVQLVQSGAEVKKPGSSVKVSCKASGGTFSDYAISWVRQAPGQGLEWMGRIIPILGVADYAQKFQGRVTITADKSTRTAYMELSSLRSEDTAVYYCARNWADAFDIWGQGTMVTVSS
VL: DIQLTQSPSSLSASVGDRVTITCRASQGISSVLAWYQQKPGKAPKLLIYDASSLESGVPSRFSGSGSGTDFTLTISSLQPEDFATYYCQQFDSSITFGQGTKLEIK
notes: Tested in IgG format; human IgG1 Fc silent (PG-LALA)
B3: Refmab #3 (antibody, human IgG1, V domains shown)
VH: QVQLVQSGAEVKKPGSSVKVSCKASGYTFTDYNMHWVRQAPGQGLEWIGYIYPYNGGTGYNQKFKSKATITADESTNTAYMELSSLRSEDTAVYYCARGRPAMDYWGQGTLVTVSS
VL: DIQMTQSPSSLSASVGDRVTITCRASESVDNYGISFMNWFQQKPGKAPKLLIYAASNQGSGVPSRFSGSGSGTDFTLTISSLQPDDFATYYCQQSKEVPWTFGQGTKVEIK
notes: as for B2
B4: Refmab #4 (antibody, human IgG1, V domains shown)
VH: QVQLVQSGAEVKKPGESVKVSCKASGYTFTNYGMNWVKQAPGQGLEWMGWINTYTGEPTYADKFQGRVTMTTDTSTSTAYMEIRNLGGDDTAVYYCARWSWSDGYYVYFDYWGQGTSVTVSS
VL: DIVMTQSPDSLTVSLGERTTINCKSSQSVLDSSTNKNSLAWYQQKPGQPPKLLLSWASTRESGIPDRFSGSGSGTDFTLTIDSPQPEDSATYYCQQSAHFPITFGQGTRLEIK
notes: as for B2

Key:
Assay in all cases: flow cytometry, mutant on cells, IgG
human CD33 N20T = human CD33 N20T (human, UniProt P20138 18-364)
Procedure: (§1) An alanine scan on human CD33 was performed to the determine the residues on CD33 that are involved in binding to the antibodies investigated. […] Briefly, a mutation library of CD33 was created by high-throughput, site-directed mutagenesis. Each residue was individually mutated to alanine, with alanine codons mutated to serine. The mutant library was arrayed in 384-well microplates and transiently transfected into HEK293-T. Following transfection, cells were incubated with the indicated antibodies (IgG or Fab) at concentrations pre-determined using an independent immunofluorescence titration curve on wild type CD33. […] Binding of each antibody to each mutant clone was determined in duplicates. For each point, background fluorescence was subtracted from the raw data, which were then normalized to antibody reactivity with wild type CD33.
(§2) Antibodies were screened for binding to the human CD33 variants in IgG format. […] For each mutation, background fluorescence was subtracted from the raw data, which were then normalized to antibody reactivity with wild-type CD33.

human CD33 I47G = human CD33 I47G (human, UniProt P20138 18-364)
Procedure: as §1, §2

human CD33 N20D = human CD33 N20D (human, UniProt P20138 18-364)
Procedure: as §1, §2

human CD33 P46R = human CD33 P46R (human, UniProt P20138 18-364)
Procedure: as §1, §2

human CD33 P46S = human CD33 P46S (human, UniProt P20138 18-364)
Procedure: as §1, §2

human CD33 P46H = human CD33 P46H (human, UniProt P20138 18-364)
Procedure: as §1, §2

human CD33 V25I = human CD33 V25I (human, UniProt P20138 18-364)
Procedure: as §1, §2

human CD33 F43L = human CD33 F43L (human, UniProt P20138 18-364)
Procedure: as §1, §2

human CD33 F44Q = human CD33 F44Q (human, UniProt P20138 18-364)
Procedure: as §1, §2

human CD33 F44H = human CD33 F44H (human, UniProt P20138 18-364)
Procedure: as §1, §2

human CD33 Q24N = human CD33 Q24N (human, UniProt P20138 18-364)
Procedure: as §1, §2

human CD33 Q24L = human CD33 Q24L (human, UniProt P20138 18-364)
Procedure: as §1, §2

human CD33 N20G = human CD33 N20G (human, UniProt P20138 18-364)
Procedure: as §1, §2

human CD33 N20K = human CD33 N20K (human, UniProt P20138 18-364)
Procedure: as §1, §2

human CD33 F21H = human CD33 F21H (human, UniProt P20138 18-364)
Procedure: as §1, §2

human CD33 P19D = human CD33 P19D (human, UniProt P20138 18-364)
Procedure: as §1, §2

human CD33 D18R = human CD33 D18R (human, UniProt P20138 19-364)
Procedure: as §1, §2

human CD33 N20P = human CD33 N20P (human, UniProt P20138 18-364)
Procedure: as §1, §2

human CD33 F21I = human CD33 F21I (human, UniProt P20138 18-364)
Procedure: as §1, §2

human CD33 D18N = human CD33 D18N (human, UniProt P20138 19-364)
Procedure: as §1, §2

human CD33 F43V = human CD33 F43V (human, UniProt P20138 18-364)
Procedure: as §1, §2

human CD33 F44I = human CD33 F44I (human, UniProt P20138 18-364)
Procedure: as §1, §2

human CD33 W22Y = human CD33 W22Y (human, UniProt P20138 18-364)
Procedure: as §1, §2

human CD33 H45Y = human CD33 H45Y (human, UniProt P20138 18-364)
Procedure: as §1, §2

human CD33 L23M = human CD33 L23M (human, UniProt P20138 18-364)
Procedure: as §1, §2

human CD33 W22R = human CD33 W22R (human, UniProt P20138 18-364)
Procedure: as §1, §2

human CD33 W22P = human CD33 W22P (human, UniProt P20138 18-364)
Procedure: as §1, §2

human CD33 W22E = human CD33 W22E (human, UniProt P20138 18-364)
Procedure: as §1, §2

human CD33 P19K = human CD33 P19K (human, UniProt P20138 18-364)
Procedure: as §1, §2

human CD33 F44T = human CD33 F44T (human, UniProt P20138 18-364)
Procedure: as §1, §2

human CD33 F21L = human CD33 F21L (human, UniProt P20138 18-364)
Procedure: as §1, §2

human CD33 Q24S = human CD33 Q24S (human, UniProt P20138 18-364)
Procedure: as §1, §2

human CD33 F44S = human CD33 F44S (human, UniProt P20138 18-364)
Procedure: as §1, §2

human CD33 I47T = human CD33 I47T (human, UniProt P20138 18-364)
Procedure: as §1, §2

human CD33 N20W = human CD33 N20W (human, UniProt P20138 18-364)
Procedure: as §1, §2

human CD33 W22N = human CD33 W22N (human, UniProt P20138 18-364)
Procedure: as §1, §2

human CD33 P46I = human CD33 P46I (human, UniProt P20138 18-364)
Procedure: as §1, §2

human CD33 P46H, sequence (P20138 18-364 P46H limits assumed): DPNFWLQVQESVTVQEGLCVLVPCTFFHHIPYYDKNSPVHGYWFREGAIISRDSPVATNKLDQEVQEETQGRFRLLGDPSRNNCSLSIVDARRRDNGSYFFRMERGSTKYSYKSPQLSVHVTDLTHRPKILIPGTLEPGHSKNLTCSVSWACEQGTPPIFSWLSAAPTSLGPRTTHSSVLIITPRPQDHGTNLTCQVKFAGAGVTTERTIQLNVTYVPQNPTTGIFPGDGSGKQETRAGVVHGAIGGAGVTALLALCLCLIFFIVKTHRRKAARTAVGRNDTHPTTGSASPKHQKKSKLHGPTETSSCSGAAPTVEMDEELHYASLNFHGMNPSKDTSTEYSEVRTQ
human CD33 L23M, sequence (P20138 18-364 L23M limits assumed): as the sequence (P20138 18-364 P46H limits assumed) above, with L6M, H29P counted along it
human CD33 P46R, sequence (P20138 18-364 P46R limits assumed): as the sequence (P20138 18-364 P46H limits assumed) above, with H29R counted along it
human CD33 N20K, sequence (P20138 18-364 N20K limits assumed): as the sequence (P20138 18-364 P46H limits assumed) above, with N3K, H29P counted along it
human CD33 P19K, sequence (P20138 18-364 P19K limits assumed): as the sequence (P20138 18-364 P46H limits assumed) above, with P2K, H29P counted along it
human CD33 F44H, sequence (P20138 18-364 F44H limits assumed): as the sequence (P20138 18-364 P46H limits assumed) above, with F27H, H29P counted along it
human CD33 P46S, sequence (P20138 18-364 P46S limits assumed): as the sequence (P20138 18-364 P46H limits assumed) above, with H29S counted along it
human CD33 Q24N, sequence (P20138 18-364 Q24N limits assumed): as the sequence (P20138 18-364 P46H limits assumed) above, with Q7N, H29P counted along it
human CD33 F21I, sequence (P20138 18-364 F21I limits assumed): as the sequence (P20138 18-364 P46H limits assumed) above, with F4I, H29P counted along it
human CD33 D18N, sequence (P20138 18-364 D18N limits assumed): as the sequence (P20138 18-364 P46H limits assumed) above, with D1N, H29P counted along it
human CD33 W22P, sequence (P20138 18-364 W22P limits assumed): as the sequence (P20138 18-364 P46H limits assumed) above, with W5P, H29P counted along it
human CD33 N20W, sequence (P20138 18-364 N20W limits assumed): as the sequence (P20138 18-364 P46H limits assumed) above, with N3W, H29P counted along it
human CD33 W22R, sequence (P20138 18-364 W22R limits assumed): as the sequence (P20138 18-364 P46H limits assumed) above, with W5R, H29P counted along it
human CD33 I47T, sequence (P20138 18-364 I47T limits assumed): as the sequence (P20138 18-364 P46H limits assumed) above, with H29P, I30T counted along it

Binder	Mean % WT Binding (human CD33 N20T)	Mean % WT Binding (human CD33 I47G)	Mean % WT Binding (human CD33 N20D)	Mean % WT Binding (human CD33 P46R)	Mean % WT Binding (human CD33 P46S)	Mean % WT Binding (human CD33 P46H)	Mean % WT Binding (human CD33 V25I)	Mean % WT Binding (human CD33 F43L)	Mean % WT Binding (human CD33 F44Q)	Mean % WT Binding (human CD33 F44H)	Mean % WT Binding (human CD33 Q24N)	Mean % WT Binding (human CD33 Q24L)	Mean % WT Binding (human CD33 N20G)	Mean % WT Binding (human CD33 N20K)	Mean % WT Binding (human CD33 F21H)	Mean % WT Binding (human CD33 P19D)	Mean % WT Binding (human CD33 D18R)	Mean % WT Binding (human CD33 N20P)	Mean % WT Binding (human CD33 F21I)	Mean % WT Binding (human CD33 D18N)	other results
B1	6.9 % WT binding	105 % WT binding	0.7 % WT binding	1 % WT binding	21.4 % WT binding	0.7 % WT binding	113 % WT binding	111 % WT binding	106 % WT binding	97.6 % WT binding	86.5 % WT binding	80.9 % WT binding	5.1 % WT binding	0.4 % WT binding	20.6 % WT binding	2.6 % WT binding	60.6 % WT binding	2.9 % WT binding	1.9 % WT binding	69.6 % WT binding	Mean % WT Binding (human CD33 F43V): 101 % WT binding; Mean % WT Binding (human CD33 F44I): 100 % WT binding; Mean % WT Binding (human CD33 W22Y): 98 % WT binding; Mean % WT Binding (human CD33 H45Y): 80.3 % WT binding; Mean % WT Binding (human CD33 L23M): 94.4 % WT binding; Mean % WT Binding (human CD33 W22R): 7.4 % WT binding; Mean % WT Binding (human CD33 W22P): 2.7 % WT binding; Mean % WT Binding (human CD33 W22E): 5 % WT binding; Mean % WT Binding (human CD33 P19K): 5.5 % WT binding; Mean % WT Binding (human CD33 F44T): 107 % WT binding; Mean % WT Binding (human CD33 F21L): 4.7 % WT binding; Mean % WT Binding (human CD33 Q24S): 60.2 % WT binding; Mean % WT Binding (human CD33 F44S): 79.8 % WT binding; Mean % WT Binding (human CD33 I47T): 97.2 % WT binding; Mean % WT Binding (human CD33 N20W): 0.6 % WT binding; Mean % WT Binding (human CD33 W22N): 76.5 % WT binding; Mean % WT Binding (human CD33 P46I): 38.2 % WT binding
B2	116 % WT binding	3.7 % WT binding	109 % WT binding	64.7 % WT binding	102 % WT binding	95.1 % WT binding	114 % WT binding	45.8 % WT binding	0.5 % WT binding	0.4 % WT binding	117 % WT binding	102 % WT binding	105 % WT binding	103 % WT binding	117 % WT binding	99.3 % WT binding	96.5 % WT binding	98.5 % WT binding	86.8 % WT binding	59.2 % WT binding	Mean % WT Binding (human CD33 F43V): 24.5 % WT binding; Mean % WT Binding (human CD33 F44I): 0.4 % WT binding; Mean % WT Binding (human CD33 W22Y): 107 % WT binding; Mean % WT Binding (human CD33 H45Y): 80.7 % WT binding; Mean % WT Binding (human CD33 L23M): 107 % WT binding; Mean % WT Binding (human CD33 W22R): 115 % WT binding; Mean % WT Binding (human CD33 W22P): 136 % WT binding; Mean % WT Binding (human CD33 W22E): 107 % WT binding; Mean % WT Binding (human CD33 P19K): 115 % WT binding; Mean % WT Binding (human CD33 F44T): 0.8 % WT binding; Mean % WT Binding (human CD33 F21L): 120 % WT binding; Mean % WT Binding (human CD33 Q24S): 108 % WT binding; Mean % WT Binding (human CD33 F44S): 0.8 % WT binding; Mean % WT Binding (human CD33 I47T): 1.8 % WT binding; Mean % WT Binding (human CD33 N20W): 61.2 % WT binding; Mean % WT Binding (human CD33 W22N): 107 % WT binding; Mean % WT Binding (human CD33 P46I): 55.8 % WT binding
B3	2.2 % WT binding	107 % WT binding	4.6 % WT binding	1 % WT binding	3.5 % WT binding	0.5 % WT binding	113 % WT binding	111 % WT binding	105 % WT binding	91.2 % WT binding	35.3 % WT binding	11.8 % WT binding	3.6 % WT binding	0.8 % WT binding	1.4 % WT binding	0.6 % WT binding	5.3 % WT binding	1.7 % WT binding	0.5 % WT binding	71.5 % WT binding	Mean % WT Binding (human CD33 F43V): 101 % WT binding; Mean % WT Binding (human CD33 F44I): 101 % WT binding; Mean % WT Binding (human CD33 W22Y): 11.5 % WT binding; Mean % WT Binding (human CD33 H45Y): 4 % WT binding; Mean % WT Binding (human CD33 L23M): 98.1 % WT binding; Mean % WT Binding (human CD33 W22R): 0.9 % WT binding; Mean % WT Binding (human CD33 W22P): 0.5 % WT binding; Mean % WT Binding (human CD33 W22E): 1.4 % WT binding; Mean % WT Binding (human CD33 P19K): 1.8 % WT binding; Mean % WT Binding (human CD33 F44T): 83.3 % WT binding; Mean % WT Binding (human CD33 F21L): 1 % WT binding; Mean % WT Binding (human CD33 Q24S): 5.3 % WT binding; Mean % WT Binding (human CD33 F44S): 11.4 % WT binding; Mean % WT Binding (human CD33 I47T): 72.4 % WT binding; Mean % WT Binding (human CD33 N20W): 0.7 % WT binding; Mean % WT Binding (human CD33 W22N): 3.5 % WT binding; Mean % WT Binding (human CD33 P46I): 1.8 % WT binding
B4	92.1 % WT binding	72.5 % WT binding	91.3 % WT binding	106 % WT binding	107 % WT binding	69.5 % WT binding	104 % WT binding	100 % WT binding	102 % WT binding	84.9 % WT binding	107 % WT binding	97 % WT binding	103 % WT binding	102 % WT binding	123 % WT binding	94.8 % WT binding	100 % WT binding	98.5 % WT binding	96.3 % WT binding	76 % WT binding	Mean % WT Binding (human CD33 F43V): 81.5 % WT binding; Mean % WT Binding (human CD33 F44I): 98.7 % WT binding; Mean % WT Binding (human CD33 W22Y): 86.1 % WT binding; Mean % WT Binding (human CD33 H45Y): 79.2 % WT binding; Mean % WT Binding (human CD33 L23M): 92.7 % WT binding; Mean % WT Binding (human CD33 W22R): 114 % WT binding; Mean % WT Binding (human CD33 W22P): 104 % WT binding; Mean % WT Binding (human CD33 W22E): 99.4 % WT binding; Mean % WT Binding (human CD33 P19K): 92 % WT binding; Mean % WT Binding (human CD33 F44T): 97.1 % WT binding; Mean % WT Binding (human CD33 F21L): 114 % WT binding; Mean % WT Binding (human CD33 Q24S): 96.8 % WT binding; Mean % WT Binding (human CD33 F44S): 93.8 % WT binding; Mean % WT Binding (human CD33 I47T): 82.4 % WT binding; Mean % WT Binding (human CD33 N20W): 52.1 % WT binding; Mean % WT Binding (human CD33 W22N): 100 % WT binding; Mean % WT Binding (human CD33 P46I): 91 % WT binding
